Data reported in patent US20090131309A1, “ICA512 COUPLES INSULIN SECRETION AND GENE EXPRESSION IN BETA-CELLS” (Technische Universität Dresden Medizinizche Fakultät Carl …, priority 2004, published 2009).
Changes are numbered by the printed parent chain. Residues, ends and D or L forms follow the SMILES beside them. *: point of attachment. Cbz = O=C(OCc1ccccc1)*

How the values were obtained:
μ-calpain = molecular target: T1, μ-calpain (Homo sapiens, UniProt P07384); type: biochemical; details: bacterially expressed ICA512 (601-979), 50 μM Ca2+, 30 μM inhibitor
T1 sequence (P07384 1-714): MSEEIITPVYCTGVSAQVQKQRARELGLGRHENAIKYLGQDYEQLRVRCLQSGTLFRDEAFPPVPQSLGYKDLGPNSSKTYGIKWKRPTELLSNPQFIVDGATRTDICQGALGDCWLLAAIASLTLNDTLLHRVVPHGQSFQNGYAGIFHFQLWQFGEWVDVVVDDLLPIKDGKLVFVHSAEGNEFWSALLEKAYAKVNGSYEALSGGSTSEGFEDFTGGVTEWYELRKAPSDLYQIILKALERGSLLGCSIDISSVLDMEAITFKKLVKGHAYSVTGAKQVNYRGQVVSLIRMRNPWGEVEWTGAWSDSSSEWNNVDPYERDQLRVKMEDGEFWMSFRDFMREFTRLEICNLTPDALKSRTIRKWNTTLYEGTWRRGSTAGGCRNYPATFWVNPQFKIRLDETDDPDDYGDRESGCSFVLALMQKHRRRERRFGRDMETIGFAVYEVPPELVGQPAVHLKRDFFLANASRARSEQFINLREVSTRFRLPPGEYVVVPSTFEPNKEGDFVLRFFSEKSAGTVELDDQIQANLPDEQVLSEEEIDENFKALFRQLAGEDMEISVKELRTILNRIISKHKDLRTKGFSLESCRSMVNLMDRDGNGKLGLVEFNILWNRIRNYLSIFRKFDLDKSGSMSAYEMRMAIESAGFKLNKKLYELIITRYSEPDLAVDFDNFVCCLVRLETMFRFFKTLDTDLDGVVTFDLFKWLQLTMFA
T1 sequence (P04632 1-268 partner): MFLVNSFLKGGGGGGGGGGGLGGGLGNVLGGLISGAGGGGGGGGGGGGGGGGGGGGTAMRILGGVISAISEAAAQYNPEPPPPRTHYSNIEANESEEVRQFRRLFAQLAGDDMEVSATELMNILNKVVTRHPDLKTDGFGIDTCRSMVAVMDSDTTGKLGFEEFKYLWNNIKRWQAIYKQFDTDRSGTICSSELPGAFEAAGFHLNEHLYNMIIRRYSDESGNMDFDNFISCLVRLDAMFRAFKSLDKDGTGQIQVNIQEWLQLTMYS
Method: In-vitro μ-calpain cleavage. 3 μg bacterially expressed His-ICA512 cytoplasmic domain (residues 601-979) (Ort et al., 2001) were incubated in 20 μl buffer (20 mM Tris-HCl pH 7.5, 50 μM CaCl2, 1 mM L-cysteine) at room temperature with or without 150 ng μ-calpain (Calbiochem) and 30 μM calpeptin or MG-132 for 1, 5, 15 or 45 minutes. The reactions were stopped by addition of an equal volume of 2×SDS sample buffer. Following SDS-PAGE, proteins were stained with Coomassie Blue (Bio-Rad).

[1] = molecular target: ICA512-TMF (endogenous in INS-1 cells) (rat) (UniProt Q63259); assay: cell-based or functional assay
[2] = system: T2, 6X histidine-tagged human ICA512 cytoplasmic domain (residues 601-979)
T2 sequence: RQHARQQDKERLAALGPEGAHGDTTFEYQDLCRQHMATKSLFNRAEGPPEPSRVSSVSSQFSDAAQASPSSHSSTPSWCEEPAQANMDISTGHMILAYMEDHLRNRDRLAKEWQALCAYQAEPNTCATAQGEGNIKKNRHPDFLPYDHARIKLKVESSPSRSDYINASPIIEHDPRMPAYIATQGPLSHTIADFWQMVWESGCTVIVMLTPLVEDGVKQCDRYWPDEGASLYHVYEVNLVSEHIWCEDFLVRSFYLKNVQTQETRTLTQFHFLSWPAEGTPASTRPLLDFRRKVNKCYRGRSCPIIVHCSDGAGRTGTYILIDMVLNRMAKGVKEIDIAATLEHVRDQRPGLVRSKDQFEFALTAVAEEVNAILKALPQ

STAT5b [3] = molecular target: T3, STAT5b (rat, UniProt P52632 1-786); assay: cell-based or functional assay
T3 sequence (looked up): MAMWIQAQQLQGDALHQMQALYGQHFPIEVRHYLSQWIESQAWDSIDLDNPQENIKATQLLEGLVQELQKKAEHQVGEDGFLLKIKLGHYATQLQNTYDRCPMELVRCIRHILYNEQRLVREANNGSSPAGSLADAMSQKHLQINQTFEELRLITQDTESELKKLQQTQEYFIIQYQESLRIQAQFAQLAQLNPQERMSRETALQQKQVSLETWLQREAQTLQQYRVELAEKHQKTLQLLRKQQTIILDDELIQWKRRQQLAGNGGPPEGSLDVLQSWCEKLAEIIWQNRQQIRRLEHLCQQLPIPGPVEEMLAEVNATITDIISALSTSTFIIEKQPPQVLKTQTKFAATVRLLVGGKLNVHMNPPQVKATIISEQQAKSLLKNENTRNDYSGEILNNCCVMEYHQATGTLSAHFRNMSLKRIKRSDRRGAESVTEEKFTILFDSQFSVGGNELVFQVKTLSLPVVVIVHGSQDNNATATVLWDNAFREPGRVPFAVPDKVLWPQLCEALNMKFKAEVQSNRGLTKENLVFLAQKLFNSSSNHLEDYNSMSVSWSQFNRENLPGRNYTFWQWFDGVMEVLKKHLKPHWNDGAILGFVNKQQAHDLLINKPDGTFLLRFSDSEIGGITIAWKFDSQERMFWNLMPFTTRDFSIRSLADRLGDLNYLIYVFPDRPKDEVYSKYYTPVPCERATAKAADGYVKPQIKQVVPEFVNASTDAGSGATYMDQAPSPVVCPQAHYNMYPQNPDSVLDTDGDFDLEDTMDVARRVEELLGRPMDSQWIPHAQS

STAT5b [4] = molecular target: T3, STAT5b; assay: anti-GFP immunoprecipitation from total INS-1 extracts, immunoblot for STAT5b
Method: Immunoprecipitation. INS-1 cells were transiently transfected With one or more of the following constructs: GFP, ICA512-CCF-GFP, ICA512-CCF(K/A⁷⁵⁴)-GFP, SUMO-1 and HA-SUMO-1. Anti-GFP IgGs were used for immunoprecipitations from total or cytosolic extracts. Immunoprecipitates were immunoblotted with anti-STAT5b, anti-PY-STAT5, anti-GFP or anti-HA antibodies. 600 μg and 200 μg protein were used as starting material for immunopreciptation of sumoylated ICA512 and STAT5, respectively.

STAT5 = assay: Firefly luciferase reporter assay for STAT activity (8GLE-CAS-FL) in INS-1 cells; type: cell-based, rat; details: co-transfected INS-1 cells, hGH stimulation
Method: Firefly luciferase assays. INS-1 cells were co-transfected with 8GLE-CAS-FL and one or two of the following plasmids: pEGFP, ICA512-CCF-GFP, ICA512-CCF(K/A^754)-GFP and PIASy-GFP. Two days after transfection, cells were incubated in low serum medium for 18 hrs, then stimulated with 20 nM hGH for 20 minutes, and finally left in resting buffer for 6 additional hours. Cells were harvested in 500 μl lysis reagent for luciferase assays (Promega) and 10 μl were used for measurement of luciferase activity in a Berthold luminometer. Each sample was performed in triplicate and the data represent the mean of at least 2 independent experiments.

Q: For `CC(C)C[C@@H](C=O)NC(=O)[C@H](CC(C)C)NC(=O)[C@H](CC(C)C)NC(=O)OCc1ccccc1` [MG-132] (Cbz-Leu-Leu-Leu-aldehyde), which “Cleavage by μ-calpain” value (μ-calpain) is on record?
A: Its value is “inhibited”.

Q: For “rat µ-calpain (endogenous in INS-1 cells) (from UniProt P97571 1-713)”, which stimulus-dependent degradation of ICA512-TMF after siRNA knockdown of µ-calpain in INS-1 cells [1] is on record?
A: The stimulus-dependent degradation of ICA512-TMF after siRNA knockdown of µ-calpain in INS-1 cells was 1.6 fold.

Q: For µ-calpain (Calbiochem), which “in-vitro cleavage of bacterially expressed ICA512 (601-979) by µ-calpain, Coomassie Blue staining” value [2] is on record?
A: Its value is “Cleavage by µ-calpain was inhibited by calpeptin and MG-132, another inhibitor of cysteine proteases (FIG. 8)”.

B1: ICA512-CCF-GFP (other, not shown: large carriers)
chain: SQFSDAAQASPSSHSSTPSWCEEPAQANMDISTGHMILAYMEDHLRNRDRLAKEWQALCAYQAEPNTCATAQGEGNIKKNRHPDFLPYDHARIKLKVESSPSRSDYINASPIIEHDPRMPAYIATQGPLSHTIADFWQMVWESGCTVIVMLTPLVEDGVKQCDRYWPDEGASLYHVYEVNLVSEHIWCEDFLVRSFYLKNVQTQETRTLTQFHFLSWPAEGTPASTRPLLDFRRKVNKCYRGRSCPIIVHCSDGAGRTGTYILIDMVLNRMAKGVKEIDIAATLEHVRDQRPGLVRSKDQFEFALTAVAEEVNAILKALPQ
Q: How did the “luciferase activity of the STAT reporter 8GLE-CAS-FL in hGH-stimulated INS-1 cells, relative to GFP cells” value (STAT5b [3]) turn out when B1 was run?
A: Its value is greater than 500%.

B2: ICA512-CCF(K/A^754)-GFP (other)
chain: B1 chain with K96A
notes: Expressed in INS-1 cells; not shown: GFP encoded by pEGFP-N1 (Clontech), fused at the C-terminus
Q: Does B2 bind (STAT5b [4])?
A: Result: binds

B3: ICA512-CCF(K/A^754)-GFP: ICA512-CCF-GFP construct in which Lys754 was replaced by alanine (protein)
chain: B1 chain with K96A
modifications: left off: large carriers
notes: ICA512-CCF-GFP construct in which Lys754 was replaced by alanine
Q: B3 was tested. Which “STAT5 transcription activity (8GLE-CAS-FL luciferase)” value (STAT5) did it give?
A: Its value is “enhances its transcription activity less than ICA512-CCF-GFP”.
